Data published in the supplement of paper PMC9112550, “Optimization of the antimicrobial peptide Bac7 by deep mutational scanning” (BMC Biology, 2022).

System: Escherichia coli TOP10
Assay: shrunken log2 fold change of peptide-encoding DNA abundance (4.5 h post-induction vs induction); higher = less antimicrobial activity (less host growth inhibition)
Conditions: time post-induction: 4.5 h; library: site-saturation at positions 5, 18, 19, 20
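Further: peptides expressed intracellularly from a pBAD plasmid library in pooled LB shake-flask culture, induced with 0.3% L-arabinose, DNA abundance read by NGS, three biological replicates, DESeq2 with apeglm shrinkage.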

Sequence | shrunken log2 fold change
RRIRARPPRLPRPRPRPIFFPRP | 0.388
RRIRVRPPRLPRPRPRPWGDPRP | 0.148
RRIRMRPPRLPRPRPRPNQKPRP | 0.00203
RRIRQRPPRLPRPRPRPMVYPRP | 0.017
RRIRLRPPRLPRPRPRPLFIPRP | -0.539
RRIRERPPRLPRPRPRPCDCPRP | 0.00557
RRIRERPPRLPRPRPRPVCFPRP | -0.173
RRIRIRPPRLPRPRPRPSLHPRP | -0.824
RRIRARPPRLPRPRPRPVQSPRP | 0.14
RRIRGRPPRLPRPRPRPWANPRP | 0.0528
RRIRARPPRLPRPRPRPGAIPRP | 0.828
RRIRKRPPRLPRPRPRPHWWPRP | 0.119
RRIRQRPPRLPRPRPRPWTPPRP | -0.061
RRIRMRPPRLPRPRPRPVWIPRP | -0.0455
RRIRPRPPRLPRPRPRPMNPPRP | 0.00824
RRIRMRPPRLPRPRPRPFEDPRP | 0.2
RRIRDRPPRLPRPRPRPGVSPRP | 0.158
RRIRCRPPRLPRPRPRPNRDPRP | -0.167
RRIRWRPPRLPRPRPRPGALPRP | 0.406
RRIRGRPPRLPRPRPRPMLIPRP | 0.312
RRIRYRPPRLPRPRPRPIGQPRP | 0.013
RRIRKRPPRLPRPRPRPYIFPRP | -0.129
RRIRMRPPRLPRPRPRPNHMPRP | -0.01

Sequence | shrunken log2 fold change
RRIRSRPPRLPRPRPRPKCGPRP | 0.397
RRIRERPPRLPRPRPRPWNAPRP | 0.0455
RRIRDRPPRLPRPRPRPFWCPRP | 0.136
RRIRERPPRLPRPRPRPQPIPRP | 0.0322
RRIRSRPPRLPRPRPRPNALPRP | -0.0803
RRIRSRPPRLPRPRPRPKRYPRP | -0.163
RRIRPRPPRLPRPRPRPNYDPRP | -0.388
RRIRERPPRLPRPRPRPKFPPRP | 0.0509
RRIRGRPPRLPRPRPRPVRFPRP | 0.685
RRIRRRPPRLPRPRPRPWHVPRP | -0.135
RRIRTRPPRLPRPRPRPVDQPRP | -0.123
RRIRMRPPRLPRPRPRPASWPRP | 0.901
RRIRRRPPRLPRPRPRPPNHPRP | 0.234
RRIRCRPPRLPRPRPRPEPAPRP | 0.971
RRIRWRPPRLPRPRPRPGPHPRP | -0.0302
RRIRCRPPRLPRPRPRPEKIPRP | 0.117
RRIRFRPPRLPRPRPRPDVEPRP | 0.00816
RRIRTRPPRLPRPRPRPHVSPRP | -0.287
RRIRNRPPRLPRPRPRPTLTPRP | 0.0952
RRIRFRPPRLPRPRPRPSYGPRP | -0.37
RRIRDRPPRLPRPRPRPFLIPRP | 0.0926
RRIRFRPPRLPRPRPRPNNAPRP | -0.271
RRIRFRPPRLPRPRPRPAQRPRP | 0.302

Sequence | shrunken log2 fold change
RRIRSRPPRLPRPRPRPSFYPRP | -0.684
RRIRGRPPRLPRPRPRPFQLPRP | 0.0144
RRIRWRPPRLPRPRPRPHCWPRP | 0.202
RRIRDRPPRLPRPRPRPEFMPRP | 0.419
RRIRPRPPRLPRPRPRPGWWPRP | 0.356
RRIRMRPPRLPRPRPRPLKIPRP | -0.0474
RRIRWRPPRLPRPRPRPFTEPRP | -0.478
RRIRLRPPRLPRPRPRPIQWPRP | 0.146
RRIRNRPPRLPRPRPRPMAHPRP | -0.0456
RRIRWRPPRLPRPRPRPMAWPRP | -0.0156
RRIRTRPPRLPRPRPRPKDCPRP | 0.0164
RRIRQRPPRLPRPRPRPRHLPRP | -0.33
RRIRKRPPRLPRPRPRPTPQPRP | 0.896
RRIRDRPPRLPRPRPRPWHRPRP | -0.017
RRIRERPPRLPRPRPRPEPSPRP | 0.0429
RRIRVRPPRLPRPRPRPMKEPRP | -0.04
RRIRARPPRLPRPRPRPRNNPRP | -0.101
RRIRERPPRLPRPRPRPYCAPRP | -0.533
RRIRRRPPRLPRPRPRPQRNPRP | 0.245
RRIRVRPPRLPRPRPRPHVQPRP | -0.0929
RRIRMRPPRLPRPRPRPVGMPRP | 0.366
RRIRCRPPRLPRPRPRPMFHPRP | -0.723
RRIRGRPPRLPRPRPRPNGIPRP | 0.287

Sequence | shrunken log2 fold change
RRIRFRPPRLPRPRPRPGFGPRP | 0.337
RRIRPRPPRLPRPRPRPRKCPRP | 0.0115
RRIRTRPPRLPRPRPRPMDRPRP | -0.01
RRIRSRPPRLPRPRPRPLRDPRP | 0.439
RRIRDRPPRLPRPRPRPFMLPRP | -0.342
RRIRLRPPRLPRPRPRPWAQPRP | 0.249
RRIRLRPPRLPRPRPRPFPVPRP | 0.11
RRIRVRPPRLPRPRPRPSNKPRP | -0.751
RRIRGRPPRLPRPRPRPFWLPRP | 0.299
RRIRFRPPRLPRPRPRPWMDPRP | -0.347
RRIRTRPPRLPRPRPRPMNIPRP | -0.259
RRIRARPPRLPRPRPRPSNSPRP | -0.156
RRIRGRPPRLPRPRPRPSITPRP | 0.0975
RRIRFRPPRLPRPRPRPWPMPRP | -0.117
RRIRWRPPRLPRPRPRPSHWPRP | 0.3
RRIRNRPPRLPRPRPRPQVNPRP | -0.129
RRIRYRPPRLPRPRPRPPNDPRP | -0.151
RRIRPRPPRLPRPRPRPQMHPRP | 0.143
RRIRMRPPRLPRPRPRPTDTPRP | 0.227
RRIRCRPPRLPRPRPRPHGPPRP | 0.0798
RRIRQRPPRLPRPRPRPPHSPRP | 0.511
RRIRQRPPRLPRPRPRPMKPPRP | -0.0268
